Assay results: PMC4902170 (JCI insight, 2016)
Where two headings read alike, the source gives them in different places. Values belong to the molecule of their own block, whether it stands above or below them.

How the values were obtained:
Test in all cases: SPR
[1] = molecular target: Human haptoglobin (from pooled human plasma, a mixture of 1-1, 2-1, and 2-2 phenotype) (human) (UniProt P00738)
[2] = molecular target: T1, Recombinant human CD163 protein (human, UniProt Q86VB7-1 42-1050)
[3] = molecular target: T1, Recombinant human CD163 protein; remark: listed apart in the source

T1 sequence (Q86VB7 42-1050): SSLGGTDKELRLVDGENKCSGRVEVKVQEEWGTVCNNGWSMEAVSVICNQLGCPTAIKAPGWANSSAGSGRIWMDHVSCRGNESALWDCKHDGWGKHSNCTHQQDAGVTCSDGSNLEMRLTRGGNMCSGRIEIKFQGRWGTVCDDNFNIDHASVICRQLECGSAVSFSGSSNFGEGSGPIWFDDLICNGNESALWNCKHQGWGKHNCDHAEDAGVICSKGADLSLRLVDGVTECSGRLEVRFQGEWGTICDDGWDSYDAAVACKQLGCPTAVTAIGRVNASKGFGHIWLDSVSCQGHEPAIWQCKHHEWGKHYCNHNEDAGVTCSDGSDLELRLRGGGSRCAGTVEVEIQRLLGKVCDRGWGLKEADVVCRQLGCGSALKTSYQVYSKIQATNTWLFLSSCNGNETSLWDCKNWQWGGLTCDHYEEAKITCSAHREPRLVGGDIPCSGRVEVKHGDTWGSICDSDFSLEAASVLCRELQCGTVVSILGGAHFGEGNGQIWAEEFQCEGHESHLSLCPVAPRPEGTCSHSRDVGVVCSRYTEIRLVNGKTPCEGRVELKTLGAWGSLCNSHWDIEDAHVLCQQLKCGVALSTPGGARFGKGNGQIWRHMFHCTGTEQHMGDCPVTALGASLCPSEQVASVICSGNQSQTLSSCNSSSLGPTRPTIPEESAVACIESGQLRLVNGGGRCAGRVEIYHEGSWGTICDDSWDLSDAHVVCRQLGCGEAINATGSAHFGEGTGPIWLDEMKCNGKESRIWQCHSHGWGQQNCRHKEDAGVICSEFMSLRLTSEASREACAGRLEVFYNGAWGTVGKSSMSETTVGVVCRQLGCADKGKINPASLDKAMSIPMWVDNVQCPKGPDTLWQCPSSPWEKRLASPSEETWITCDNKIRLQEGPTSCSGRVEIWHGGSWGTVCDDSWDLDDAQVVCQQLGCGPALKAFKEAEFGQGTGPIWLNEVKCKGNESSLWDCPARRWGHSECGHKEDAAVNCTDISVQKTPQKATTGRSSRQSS

Kd [1]: 64 nM
Molecule: Recombinant HMGB1 (redox form not stated for the experiment) (from UniProt P09429 1-215) (natural protein)

Kd [2]: > 1000 nM
B1: Recombinant HMGB1 (redox form not stated for the experiment) (natural protein, human, UniProt P09429 1-215, looked up)
chain: MGKGDPKKPRGKMSSYAFFVQTCREEHKKKHPDASVNFSEFSKKCSERWKTMSAKEKGKFEDMAKADKARYEREMKTYIPPKGETKKKFKDPNAPKRPPSAFFLFCSEYRPKIKGEHPGLSIGDVAKKLGEMWNNTAADDKQPYEKKAAKLKEKYEKDIAAYRAKGKPDAAKKGVVKAEKSKKKKEEEEDEEDEEDEEEEEDEEDEDEEEDDDDE

Kd [3]: 130 nM
B2: HMGB1 and haptoglobin complexes (1:1 molar ratio) (complex)
chain 1: GKGDPKKPRGKMSSYAFFVQTCREEHKKKHPDASVNFSEFSKKCSERWKTMSAKEKGKFEDMAKADKARYEREMKTYIPPKGETKKKFKDPNAPKRPPSAFFLFCSEYRPKIKGEHPGLSIGDVAKKLGEMWNNTAADDKQPYEKKAAKLKEKYEKDIAAYRAKGKPDAAKKGVVKAEKSKKKKEEEDDEEDEEDEEEEEEEEDEDEEEDDDDE
chain 2: VDSGNDVTDIADDGCPKPPEIAHGYVEHSVRYQCKNYYKLRTEGDGVYTLNDKKQWINKAVGDKLPECEADDGCPKPPEIAHGYVEHSVRYQCKNYYKLRTEGDGVYTLNNEKQWINKAVGDKLPECEAVCGKPKNPANPVQ
chain 3: ILGGHLDAKGSFPWQAKMVSHHNLTTGATLINEQWLLTTAKNLFLNHSENATAKDIAPTLTLYVGKKQLVEIEKVVLHPNYSQVDIGLIKLKQKVSVNERVMPICLPSKDYAEVGRVGYVSGWGRNANFKFTDHLKYVMLPVADQDQCIRHYEGSTVPEKKTPKSPVGVQPILNEHTFCAGMSKYQEDTCYGDAGSAFAVHDLEEDTWYATGILSFDKSCAVAEYGVYVKVTSIQDWVQKTIAEN
